The results in this text go back to doi:10.1101/2024.03.21.586168 (bioRxiv, 2024).

Test [1] addresses recombinant CD135 (Flt3) (UniProt Q00342). The test is described as follows: ELISA.
The target of test [2] is T1, recombinant CD135 (Flt3) (UniProt Q00342 28-544).
T1 sequence (looked up): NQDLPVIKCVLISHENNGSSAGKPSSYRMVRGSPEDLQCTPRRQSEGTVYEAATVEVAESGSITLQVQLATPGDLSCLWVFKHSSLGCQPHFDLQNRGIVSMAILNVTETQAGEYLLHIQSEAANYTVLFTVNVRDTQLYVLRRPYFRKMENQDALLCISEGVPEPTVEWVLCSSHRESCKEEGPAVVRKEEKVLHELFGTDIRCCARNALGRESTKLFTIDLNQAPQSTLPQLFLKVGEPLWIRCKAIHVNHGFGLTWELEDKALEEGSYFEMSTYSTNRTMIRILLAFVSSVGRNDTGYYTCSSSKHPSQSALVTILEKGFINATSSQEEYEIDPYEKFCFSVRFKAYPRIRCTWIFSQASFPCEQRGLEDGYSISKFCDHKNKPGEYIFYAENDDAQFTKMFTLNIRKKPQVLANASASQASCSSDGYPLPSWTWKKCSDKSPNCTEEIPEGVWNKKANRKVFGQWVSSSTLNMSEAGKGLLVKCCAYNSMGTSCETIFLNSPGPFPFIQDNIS
The test is described as follows: ELISA.

“Flt3L-SA (murine Flt3L fused at its C terminus to murine serum albumin through a (G4S)2 linker)”: the Kd with recombinant CD135 (Flt3) [1] turned out to be 0.16 nM.

B1: native, soluble murine Flt3L (WT) (ligand, mouse, UniProt P49772 27-189, looked up)
chain: GTPDCYFSHSPISSNFKVKFRELTDHLLKDYPVTVAVNLQDEKHCKALWSLFLAQRWIEQLKTVAGSKMQTLLEDVNTEIHFVTSCTFQPLPECLRFVQTNISHLLKDTCTQLLALKPCIGKACQNFSRCLEVQCQPDSSTLLPPRSPIALEATELPEPRPRQ
With B1, the Kd with recombinant CD135 (Flt3) [2] worked out at 0.16 nM.
